Test results from patent US20250221923A1, “BOOSTING OSMOTIC BLOOD-ORGAN BARRIER OPENING FOR IMPROVED DELIVERY OF THERAPEUTICS TO ORGANS” (priority 2024, published 2025).

Experiments:
head and neck region = system: head and neck region; design: species or system mice; details: mouse, in vivo
Description: Radiolabeled bevacizumab (Zr 89-bevacizumab) was administered via both IA and IV routes. […] Ex vivo measurements of drug biodistribution across various organs further corroborated these findings, quantifying radioactivity in specific tissues such as the skin, salivary glands, tongue, and jaw muscle (FIG. 7e). The method comprised pretreatment with composition comprising a hyperosmotic agent, stopping the pretreatment administration, and then administrating the radiolabeled bevacizumab. Without being bound by theory, it is believed that to enhance drug delivery, the pretreatment with the hyperosmotic agent would extract water from the tissue (local dehydration), followed by rapid rehydration upon cessation of the hyperosmotic infusion. This process was expected to improve the transition of the intra-arterially administered drug from the vascular compartment to the parenchymal tissues, thereby increasing drug accumulation in the targeted areas.

brain = details: mouse, in vivo
Text: In experiment 2, IA injections of antibodies suspended in 0.9% NaCl were comparted to IA injections of antibodies suspended in serum. PET imaging and post-mortem antibody biodistribution were used as outcome measures.

[1] = system: brain hemispheres and organs; assay: Ex vivo biodistribution of ^89Zr-BVDFO after OBBBO (Example 1); design: species or system mice; details: mouse
Description: On completion of PET/CT after infusion of ^89Zr-BVDFO, the mice were euthanized and left and right brain hemispheres, heart, lungs, liver, spleen, kidneys, and blood were harvested, weighed using Mettler Toledo […] Balance and radioactivity of each was measured using CRC®[…] Dose Calibrator and Well Counter, Mirion Technologies. To calculate the percentage injected dose per […] of tissue (% ID/g), first, the radioactivity present in the syringe after injection was measured and subtracted from initial measurement before injection to calculate the total injected dose. Then, the percentage of each organ's radioactivity measurement relative to the total injected dose was calculated and divided by the weight of the organ. The biodistribution data shown are mean % ID/g+SE.

brain hemispheres [2] = system: brain hemispheres; design: species or system mice; details: mouse
Description: A catheter was placed into the right internal carotid artery (ICA) in 14 male C57BL6 mice for intra-arterial (IA) injections. […] To confirm OBBBO, Gadolinium-enhanced T1 MRI was conducted, and safety was confirmed through subsequent serial MRI over 1-2 weeks.

brain hemispheres [3] = details: mouse, in vivo
Description: Then, monoclonal antibody (mAb) bevacizumab was conjugated to deferoxamine (DFO) and the conjugate was radiolabeled with zirconium-89 (^89Zr). OBBBO was performed using 25% mannitol or 4% NaCl in 25% mannitol, followed by intraarterial (IA) injection of the radiolabeled mAb and positron-emission tomography (PET) imaging to assess the distribution of the mAb. The percentages of injected dose per cubic centimeter of tissue (% ID/g) and standardized uptake values (SUV) were calculated for selected organs and regions.
Approximately 7.5 MBq (˜202 μCi) of ^89Zr-BVDFO reconstituted in 0.2 mL of saline was infused intraarterially at a speed of 0.15 mL/min and each animal was transferred to the PET/CT scanner. […] Regions of interest (ROIs), including right and left brain hemispheres, heart, lungs, and liver, were demarcated in the axial plane, and standardized uptake values (SUV) were calculated using the Fiji ImageJ PET/CT plugin.
Linear mixed modeling with restricted maximum likelihood (REML) method was performed using ‘Imer’ package, with % ID/g or SUVmean or SUVmax as a dependent variable, organs and BBBO type as fixed effects and mouse ID as a random effect. Estimated marginal means were calculated using ‘emmeans’ package for organ and BBBO interactions, and p-values for pairwise comparisons were extracted.

^89Zr-BVDFO: monoclonal antibody bevacizumab (Avastin) conjugated to deferoxamine (DFO) and radiolabeled with zirconium-89
antibody uptake in the head and neck region, IA compared to IV (head and neck region): significantly higher
CNS penetration, antibodies suspended in 0.9% NaCl vs suspended in serum (brain): much higher
antibody penetration to the brain, IA vs IV (brain; iv): much higher
uptake in the blood, lungs, spleen, liver, and kidneys [1]: high uptake
ex vivo biodistribution, accumulation in the ipsilateral hemisphere (brain hemispheres [2]): confirmed by ex vivo biodistribution
standardized uptake values (SUV), accumulation in the ipsilateral hemisphere (brain hemispheres [2]; in vivo): substantial accumulation
accumulation of radioactivity in the ipsilateral hemisphere (brain hemispheres [3]): substantial accumulation
